In patent publication US20240376151A1, “STAPLED PEPTIDES AND METHODS THEREOF” (FOG PHARMACEUTICALS, INC., priority 2022, published 2024):
Numbered stars: 1 amine (or outer) side, 2 acyl side, 3 side chain; on linkers, the order of the positions; unused ones are H or OH. Bridge positions count the residues as written; N and C are the ends. Ends that are not written are not given here. Phenylene(1,4-NHCOCH2)2 = O=C(C[*:1])Nc1ccc(NC(=O)C[*:2])cc1

Target: T1, MDM2 (Homo sapiens, UniProt Q00987)
T1 construct: made in house
Assay: Naive Library Presenter Screening (phage, NGS), MDM2
Type: binding
Settings: for interaction data, BLANK: Blank = Media only

[1] = MDM2 clusters (C82, C85), first column
[2] = MDM2 clusters (C82, C85), second column
[3] = MDM2 clusters (C82, C85), target concentration 10 nM
[4] = MDM2 clusters (C82, C85), target concentration 30 nM
[5] = MDM2 clusters (C82, C85), target concentration 100 nM
[6] = MDM2 clusters (C82, C85), target concentration 300 nM
[7] = MDM2 clusters (C82, C85), target concentration 1000 nM, first column
[8] = MDM2 clusters (C82, C85), target concentration 1000 nM, second column

T1 sequence (Q00987 25-109): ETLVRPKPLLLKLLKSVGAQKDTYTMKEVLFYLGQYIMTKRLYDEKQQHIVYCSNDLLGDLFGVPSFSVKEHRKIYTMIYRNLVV

| Sequence | interaction data, BLANK [1] | interaction data, BLANK [2] | interaction data at Target Concentration 10 [3] | interaction data at Target Concentration 30 [4] | interaction data at Target Concentration 100 [5] | interaction data at Target Concentration 300 [6] | interaction data at Target Concentration 1000 [7] | interaction data at Target Concentration 1000 [8] | interaction data at Target Concentration 10 (MDM2 target concentration 10 nM) | interaction data at Target Concentration 30 (MDM2 target concentration 30 nM) | interaction data at Target Concentration 100 (MDM2 target concentration 100 nM) | interaction data at Target Concentration 300 (MDM2 target concentration 300 nM) | interaction data at Target Concentration 1000 (MDM2 target concentration 1000 nM, first column) | interaction data at Target Concentration 1000 (MDM2 target concentration 1000 nM, second column) |
| --- | --- | --- | --- | --- | --- | --- | --- | --- | --- | --- | --- | --- | --- | --- |
| DPALMQCTEAAFWCYWE (linker 7-14 via Phenylene(1,4-NHCOCH2)2 (inferred); not fully specified (C-terminus)) | 0 | 0 | 0 | 0 | 24 | 36 | 24 | 32 |  |  |  |  |  |  |
| DPAMSNCFMAAWECLIQ (linker 7-14 via Phenylene(1,4-NHCOCH2)2 (inferred); not fully specified (C-terminus)) | 0 | 0 | 49 | 104 | 206 | 192 | 185 | 176 |  |  |  |  |  |  |
| DPANHACFQAAWDCQFF (linker 7-14 via Phenylene(1,4-NHCOCH2)2 (inferred)) |  |  |  |  |  |  |  |  | 11 | 154 | 643 | 1045 | 776 | 1088 |
| DPAQEDCHAAAFWCIWD (DPAQEDCHAAAFWCIWD-NH2; linker 7-14 via Phenylene(1,4-NHCOCH2)2 (inferred)) | 0 | 0 | 0 | 0 | 15 | 37 | 23 | 48 |  |  |  |  |  |  |
| DPAQHHCQQAAFWCQWW (DPAQHHCQQAAFWCQWW-NH2; linker 7-14 via Phenylene(1,4-NHCOCH2)2 (inferred)) | 0 | 0 | 0 | 0 | 13 | 13 | 36 | 18 |  |  |  |  |  |  |
| DPAQQDCFLAAWDCVWQ (DPAQQDCFLAAWDCVWQ-NH2; linker 7-14 via Phenylene(1,4-NHCOCH2)2 (inferred)) | 0 | 0 | 0 | 12 | 132 | 166 | 104 | 237 |  |  |  |  |  |  |
| DPAQSDCFQAAWECVAN (DPAQSDCFQAAWECVAN-NH2; linker 7-14 via Phenylene(1,4-NHCOCH2)2 (inferred)) | 0 | 0 | 0 | 0 | 35 | 47 | 52 | 29 |  |  |  |  |  |  |
| DPARLRCQDAAFACMWY (DPARLRCQDAAFACMWY-NH2; linker 7-14 via Phenylene(1,4-NHCOCH2)2 (inferred)) | 0 | 0 | 0 | 0 | 17 | 31 | 32 | 37 |  |  |  |  |  |  |
| DPARQDCFSAAWMCMAI (DPARQDCFSAAWMCMAI-NH2; linker 7-14 via Phenylene(1,4-NHCOCH2)2 (inferred)) | 0 | 0 | 0 | 1 | 94 | 107 | 120 | 114 |  |  |  |  |  |  |
